Assay results taken from paper PMC4681132 (Nature, 2015).

T1: RNA polymerase III subunit C160 (S. cerevisiae, UniProt P04051 1-1460)
T1 sequence: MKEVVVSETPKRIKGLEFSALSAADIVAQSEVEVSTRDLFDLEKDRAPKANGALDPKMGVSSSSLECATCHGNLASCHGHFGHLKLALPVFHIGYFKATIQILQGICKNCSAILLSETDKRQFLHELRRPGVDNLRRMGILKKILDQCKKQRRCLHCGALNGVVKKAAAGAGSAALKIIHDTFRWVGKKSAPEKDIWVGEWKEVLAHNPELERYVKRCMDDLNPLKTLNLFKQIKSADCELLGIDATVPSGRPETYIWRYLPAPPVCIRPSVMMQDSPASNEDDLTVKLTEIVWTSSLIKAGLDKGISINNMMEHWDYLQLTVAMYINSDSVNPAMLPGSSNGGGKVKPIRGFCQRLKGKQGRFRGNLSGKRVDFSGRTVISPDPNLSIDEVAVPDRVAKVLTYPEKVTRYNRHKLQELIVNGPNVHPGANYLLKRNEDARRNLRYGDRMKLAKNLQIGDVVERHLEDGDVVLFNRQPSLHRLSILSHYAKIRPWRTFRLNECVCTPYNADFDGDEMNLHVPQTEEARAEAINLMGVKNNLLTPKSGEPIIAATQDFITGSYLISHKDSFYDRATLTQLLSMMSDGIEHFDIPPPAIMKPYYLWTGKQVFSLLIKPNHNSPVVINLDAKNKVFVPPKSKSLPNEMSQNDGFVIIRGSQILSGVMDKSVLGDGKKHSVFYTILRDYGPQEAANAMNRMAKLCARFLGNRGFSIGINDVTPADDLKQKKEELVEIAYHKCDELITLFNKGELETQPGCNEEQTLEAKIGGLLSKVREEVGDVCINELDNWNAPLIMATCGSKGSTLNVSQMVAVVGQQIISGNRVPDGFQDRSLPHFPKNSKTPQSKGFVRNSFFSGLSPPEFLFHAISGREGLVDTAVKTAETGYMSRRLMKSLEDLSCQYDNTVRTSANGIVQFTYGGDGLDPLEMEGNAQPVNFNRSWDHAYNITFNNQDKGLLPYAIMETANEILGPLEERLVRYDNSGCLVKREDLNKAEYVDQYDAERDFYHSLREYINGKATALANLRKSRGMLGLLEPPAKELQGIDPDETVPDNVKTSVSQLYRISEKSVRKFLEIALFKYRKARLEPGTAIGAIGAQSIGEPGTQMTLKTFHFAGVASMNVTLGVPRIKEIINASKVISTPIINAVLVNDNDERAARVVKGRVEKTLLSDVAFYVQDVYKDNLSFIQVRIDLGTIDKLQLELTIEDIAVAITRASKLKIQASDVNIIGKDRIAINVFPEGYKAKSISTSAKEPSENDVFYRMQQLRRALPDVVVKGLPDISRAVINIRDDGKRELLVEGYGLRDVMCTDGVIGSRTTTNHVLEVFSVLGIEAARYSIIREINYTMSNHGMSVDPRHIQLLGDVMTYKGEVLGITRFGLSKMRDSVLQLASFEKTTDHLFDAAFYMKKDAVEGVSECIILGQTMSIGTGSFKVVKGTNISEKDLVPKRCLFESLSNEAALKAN

B1: RNA polymerase III subunit C82 (natural protein, S. cerevisiae)
chain: MDELLGEALSAENQTGESTVESEKLVTPEDVMTISSLEQRTLNPDLFLYKELVKAHLGERAASVIGMLVALGRLSVRELVEKIDGMDVDSVKTTLVSLTQLRCVKYLQETAISGKKTTYYYYNEEGIHILLYSGLIIDEIITQMRVNDEEEHKQLVAEIVQNVISLGSLTVEDYLSSVTSDSMKYTISSLFVQLCEMGYLIQISKLHYTPIEDLWQFLYEKHYKNIPRNSPLSDLKKRSQAKMNAKTDFAKIINKPNELSQILTVDPKTSLRIVKPTVSLTINLDRFMKGRRSKQLINLAKTRVGSVTAQVYKIALRLTEQKSPKIRDPLTQTGLLQDLEEAKSFQDEAELVEEKTPGLTFNAIDLARHLPAELDLRGSLLSRKPSDNKKRSGSNAAASLPSKKLKTEDGFVIPALPAAVSKSLQESGDTQEEDEEEEDLDADTEDPHSASLINSHLKILASSNFPFLNETKPGVYYVPYSKLMPVLKSSVYEYVIASTLGPSAMRLSRCIRDNKLVSEKIINSTALMKEKDIRSTLASLIRYNSVEIQEVPRTADRSASRAVFLFRCKETHSYNFMRQNLEWNMANLLFKKEKLKQENSTLLKKANRDDVKGRENELLLPSELNQLKMVNERELNVFARLSRLLSLWEVFQMA
B2: Pol III stalk (subunits C17 and C25) (complex, S. cerevisiae)
chain 1: MKVLEERNAFLSDYEVLKFLTDLEKKHLWDQKSLAALKKSRSKGKQNRPYNHPELQGITRNVVNYLSINKNFINQEDEGEERESSGAKDAEKSGISKMSDESFAELMTKLNSFKLFKAEKLQIVNQLPANMVHLYSIVEECDARFDEKTIEEMLEIISGYA
chain 2: MFILSKIADLVRIPPDQFHRDTISAITHQLNNKFANKIIPNVGLCITIYDLLTVEEGQLKPGDGSSYINVTFRAVVFKPFLGEIVTGWISKCTAEGIKVSLLGIFDDIFIPQNMLFEGCYYTPEESAWIWPMDEETKLYFDVNEKIRFRIEREVFVDVKPKSPKERELEERAQLENEIEGKNEETPQNEKPPAYALLGSCQTDGMGLVSWWE

Tests used:
Experiment in all cases: cryo-EM structure
[1] = molecular target: B2
[2] = molecular target: B1
[3] = molecular target: T1, RNA polymerase III subunit C160

binding result [1]	binding result [2]	binding result [3]	Binder
binds	binds		RNA polymerase III subunit C31 (natural protein, S. cerevisiae, UniProt P17890 1-251, looked up) MSSYRGGSRGGGSNYMSNLPFGLGYGDVGKNHITEFPSIPLPINGPITNKERSLAVKYINFGKTVKDGPFYTGSMSLIIDQQENSKSGKRKPNIILDEDDTNDGIERYSDKYLKKRKIGISIDDHPYNLNLFPNELYNVMGINKKKLLAISKFNNADDVFTGTGLQDENIGLSMLAKLKELAEDVDDASTGDGAAKGSKTGEGEDDDLADDDFEEDEDEEDDDDYNAEKYFNNGDDDDYGDEEDPNEEAAF
	binds	binds	RNA polymerase III subunit C34 (natural protein, S. cerevisiae) MSGMIENGLQLSDNAKTLHSQMMSKGIGALFTQQELQKQMGIGSLTDLMSIVQELLDKNLIKLVKQNDELKFQGVLESEAQKKATMSAEEALVYSYIEASGREGIWSKTIKARTNLHQHVVLKCLKSLESQRYVKSVKSVKFPTRKIYMLYSLQPSVDITGGPWFTDGELDIEFINSLLTIVWRFISENTFPNGFKNFENGPKKNVFYAPNVKNYSTTQEILEFITAAQVANVELTPSNIRSLCEVLVYDDKLEKVTHDCYRVTLESILQMNQGEGEPEAGNKALEDEEEFSIFNYFKMFPASKHDKEVVYFDEWTI
		binds	B1
		binds	B2
		binds	RNA polymerase III stalk subunit C25 (natural protein, S. cerevisiae) MFILSKIADLVRIPPDQFHRDTISAITHQLNNKFANKIIPNVGLCITIYDLLTVEEGQLKPGDGSSYINVTFRAVVFKPFLGEIVTGWISKCTAEGIKVSLLGIFDDIFIPQNMLFEGCYYTPEESAWIWPMDEETKLYFDVNEKIRFRIEREVFVDVKPKSPKERELEERAQLENEIEGKNEETPQNEKPPAYALLGSCQTDGMGLVSWWE
